Data from the supplement of paper PMC10567573.
± gives the standard deviation.

Assay: protein stability index of a GFP-peptide fusion (GPS, HEK-293T) (PSI 1-6); higher = more stable
Conditions: c terminus: a fixed tail appended
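Further: 24-mer peptide tiles fused after GFP, lentivirally expressed, FACS-sorted into six equal bins by GFP/DsRed ratio, decoded by Illumina sequencing, PSI is the read-weighted mean bin number.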

Sequence	protein stability index (treatment: DMSO)	protein stability index (treatment: MLN4924 1 uM, 8 h)
LTLVLVASVLLQAVLYPRFMGTIS [CD207]	2.99 ± 0.28	3.25 ± 0.45
EDFIFSHFFGDKALKKRSGKKDKH [PBXIP1]	3.82 ± 0.079	4.13 ± 0.16
FLVSAVAHEYIFCFVLGFFYPVML [SOAT2]	3.25 ± 0.35	3.3 ± 0.44
GGFGGGFAGGFVDFGACDGGLLTG [KRT13]	2.71 ± 0.084	3.12 ± 0.25
VHRQLSHLYAEPQKSPWCEARSLE [ESR2]	2.92 ± 0.28	3.2 ± 0.24
EQHISKCKKAFREGSRKSSRVKGS [KMT2E]	4.59 ± 0.26	4.63 ± 0.25
ELANGKPQTRSGPECGLAKKPPEE [ADAMTSL2]		4.78 ± 0.42
KEFQQVFIPECNDDGTYSQVQCHS [SMOC2]	4.01 ± 0.36	4.38 ± 0.29
ERHCHLYTFHARFGEVRPYFYLGG [TRIM35]	2.61 ± 0.49	2.6 ± 0.52
ILLQDHIRDLDVVVVSVAGAFRKG [ATL3]	2.94 ± 0.34	2.57 ± 0.68
SALFAGNEWRRPIIQFVESGDDKN [TRIM29]	4.37 ± 0.23	4.13 ± 0.25
LDSDHRELIGDYSKAFLLQTVDGK [CDC25B]	3.77 ± 0.061	3.81 ± 0.2
LAGTFHYYSCERAKKAMGYQPLVT [NSDHL]	2.2 ± 0.12	2.27 ± 0.13
EKLGSGEPSHSVKVHTVPKPGKGA [ATE1]	5.04 ± 0.23	5 ± 0.22
EYDVYSTFQSHEPEFDYLKSLEIE [PPP2R2C]	4.33 ± 0.17	4.3 ± 0.078
AARAGHVCTVQFLISKGANVNRTT [ANKRD17]	1.83 ± 0.32	2.07 ± 0.21
QRFRLDNLLNMAYGVKSPLSLIAR [ELAVL3]	2.05 ± 0.14	2.19 ± 0.18
IERLTREVEATRRALIDRMVNLHQ [DDIT3]	2.45 ± 0.18	2.61 ± 0.24
TFFRLLLPEAPPKKFLTLGSKFRY [EPB41L3]	2.23 ± 0.32	2.85 ± 1.4
TSPECASPQFEGPLSPPPINYNGI [NEUROD6]	4.07 ± 0.15	3.91 ± 0.3
SRELSLRPSRSGAQQLEEEGPMEE [EID1]	5.58 ± 0.29	5.64 ± 0.12
APGPSPADKKRSGKKKISKADIGA [WAS]	5.02 ± 0.23	4.86 ± 0.17
QKTRLLEDSVSRLEKEIEVLERGD [PALM]	4.96 ± 0.069	5.03 ± 0.27

Sequence	protein stability index (treatment: DMSO)	protein stability index (treatment: MLN4924 1 uM, 8 h)
SNLSVENVADTLVLADLHSAEQLK [SPOPL]	4.65 ± 0.27	4.61 ± 0.19
PLVGQDEFFLEQTKKKGVKRPARL [NOP53]	4.18 ± 0.41	4.2 ± 0.19
RSVEEAPVYSVPQLLSAMGSLCSL [SCNN1D]	2.44 ± 0.16	2.59 ± 0.4
SLNELMIVIGILSAYISNYAFANV [SLC2A12]	3.35 ± 0.31	3.18 ± 0.39
CFPRLDINVSKGINHLLKSPFSVH [PRIM1]	2.14 ± 0.68	2.05 ± 0.36
ESQASRKEEGLPEEEPSHVTGREG [ZNF8]	5.62 ± 0.1	5.59 ± 0.2
TSAEIELPDVEPAAFLALLRFLYS [BTBD1]	2.42 ± 0.25	2.34 ± 0.2
IQQTTRYFSTPQTMDLFLNYSMNM [NANOGP8]	2.7 ± 0.48	2.58 ± 0.58
LEQFLAILPKELQAWVQKHHPENG [ZNF396]	2.63 ± 0.14	2.79 ± 0.24
NLLGEGQHKCDECGKSFTQSSGLI [ZSCAN9]	3.66 ± 0.3	3.68 ± 0.28
CDECGKHFSQGSALILHQRIHSGE [ZNF24]	5.16 ± 0.2	5.43 ± 0.2
GHVEVARLLLDSGAQVNMPADSFE [ANKRD17]	3.88 ± 0.091	3.83 ± 0.24
MQFLIRSHECKPEGYEFCHNRKVL [PPEF2]	2.28 ± 0.34	2.55 ± 0.18
RSRIEALELLGASFANDRENYDII [FEM1B]	3.42 ± 0.27	3.52 ± 0.14
SLGVDTLPPPDPNPPRAEFNYSVG [APBB1IP]	4.1 ± 0.31	4.44 ± 0.22
WVCQRSTVASMMHRQETVECLKKF [CAMK2B]	2.73 ± 0.51	2.9 ± 0.52
CDPGLTAFEPEALGNLVEGMDFHR [CAMK2D]	4.33 ± 0.43	4.21 ± 0.24
HGNQSAGEDQAFGDWLLTANGSEI [SLC22A15]	4.56 ± 0.34	4.67 ± 0.18
DDKLFQKLAKVYSYAHGWMFQGWN [CPN1]	2.45 ± 0.51	2.25 ± 0.45
KTAHDSNVLHVARLPNRQLISCSE [WDR41]	3.6 ± 0.28	3.57 ± 0.35
IWAKTPPITRKAAQLYTLWVTFQV [DHCR7]	3.3 ± 0.52	2.81 ± 0.6
WFHAKSAELNKEVSTNTAMIQTSK [KRT13]	4.09 ± 0.24	4.11 ± 0.11
HAVSTCHFCVDDTKLLSGSYDCTV [WDR88]	2.46 ± 0.26	2.44 ± 0.33

Sequence	protein stability index (treatment: DMSO)	protein stability index (treatment: MLN4924 1 uM, 8 h)
FKLKESCVRRRYSDFEWLKNELER [SNX12]	2.33 ± 0.21	2.59 ± 0.26
SFAILRIIRLVRVFRIFKLSRHSK [KCNA4]	2.2 ± 0.4	2.44 ± 0.15
EEGLEARGEALGLVGAQAPATEEQ [MAGEA3]	5.57 ± 0.27	5.39 ± 0.34
KFRAKGRKPCKLMLQVVKILVVTV [MCOLN1]	2.51 ± 0.39	2.16 ± 0.19
AFPSGHLLDAHILEWHDSLFQILS [ZNF511]	2.35 ± 0.33	2.29 ± 0.3
GLQEEPVEGFRVTLVDEGDLYNWE [CDC34]	4.26 ± 0.14	4.15 ± 0.34
SPDGALLATASYDTRVYIWDPHNG [WSB1]	2.5 ± 0.41	2.51 ± 0.6
ADGRIEPGDMLLQVNEINFENMSN [DVL3]	3.95 ± 0.33	4.36 ± 0.32
ERDLQELSIQVEEERRAREWLLDA [ZMAT5]	4.54 ± 0.092	4.95 ± 0.32
ESIQRIAVHLCNALVCQVDNDHKE [ZER1]	2.81 ± 0.63	2.64 ± 0.36
NQSRCEMKTFVSPEAISPDLVKKI [TRIM15]	3.98 ± 0.3	4.14 ± 0.37
DHPGTPPHKTFRKLRLFDTPHTPK [WEE1]	3.88 ± 0.11	3.98 ± 0.15
LVVNIDNAKLASDDFRSKYQTEQS [KRT34]	3.65 ± 0.2	3.62 ± 0.2
TGILIFAIGVGQVDFNTLKSIGSE [MATN2]	3.69 ± 0.069	3 ± 0.56
DPESERALQAPHSPSKTDGKELAG [PBXIP1]	5.48 ± 0.28	5.75 ± 0.25
AEVAPEERENVAVAKLQESQPGNA [SDE2]	5.49 ± 0.18	5.718 ± 0.056
DISLGQKEDGEPSWREAKVSWFGS [PWWP2B]	3.15 ± 0.14	3.39 ± 0.14
TNTTSTQMTNIGVYVSNMTDKLVT [IQUB]	2.78 ± 0.3	2.8 ± 0.34
EQVANKGEPLALPLDAGEYCVPRG [BEX1]	4.86 ± 0.29	4.79 ± 0.27
FRLETLAGLRSRRLKQPKAFCLRD [MIR22HG]	2.52 ± 0.28	2.46 ± 0.29
TFDGSLFAVFPSLNEEQTLQEVPT [ETS2]	3.69 ± 0.28	3.57 ± 0.18
GIAHKIEAGNEFKNIFGTPEFVAP [DAPK3]	3.44 ± 0.61	3.64 ± 0.39
HELGHVFNMLHDNSKPCISLNGPL [ADAMTS4]	3 ± 0.49	2.93 ± 0.28

Sequence	protein stability index (treatment: DMSO)	protein stability index (treatment: MLN4924 1 uM, 8 h)
AFVRMKQLIEEGYVGEPLVCEVQV [GFOD1]	2.47 ± 0.77	2.55 ± 0.71
ERRGTPADTEEPTKDPDVAFHGLS [PSD2]	5.38 ± 0.42	5.38 ± 0.17
QRQDPAAAQEGEDEGASAGQGPKP [GAGE1]	5.62 ± 0.13	5.7 ± 0.14
SAFTAAHELGHVFNMLHDNSKPCI [ADAMTS4]	2.93 ± 0.094	3 ± 0.19
ISLRVYRKVLQAVHRGDGANPFQA [RTN2]	2.59 ± 0.46	2.2 ± 0.32
LSWELLDSHLGGNARGMGIRSPRP [CTBP1-DT]	3.18 ± 0.46	3.18 ± 0.3
QLHKPLAEGTPRSNHSAQDSAVEN [IKZF1]	5.35 ± 0.35	5.39 ± 0.3
EPASESVVGALPAEHQFSFMEKRN [TRAF3IP2]	4.71 ± 0.26	4.98 ± 0.27
DLEEERREEEEKTPPETKPDPPVN [PCMTD2]	5.64 ± 0.37	5.48 ± 0.48
PWSPCSARFITDFLDNGYGHCLLD [ADAMTS4]	2.05 ± 0.21	2.21 ± 0.41
ALLKFHTLDSYEDKQKLKRTEIIS [YJU2B]	2.53 ± 0.3	2.53 ± 0.3
GKNPDVDTSFLPDRDREEEENRLR [FAM50A]	5.26 ± 0.11	5.49 ± 0.38
SSSDSDFDDEEPRKFYVHIKPAPA [FCHO1]	4.5 ± 0.27	4.45 ± 0.084
EMDKLRASDIMEPNLTYVYPHTRI [CLCN6]	2.58 ± 0.23	2.92 ± 0.31
ETTEAIDDEGWLHSGDLGQLDGLG [ACSBG2]	5.23 ± 0.25	5.15 ± 0.21
DSHILLCLMGLAETPGCATLLPAS [DCAF4]	2.67 ± 0.45	2.58 ± 0.55
HLEDWLEKRAKRLSSAPSSRAEPI [ZMAT5]	4.26 ± 0.78	3.58 ± 0.081
NYVLEEVDEAAAESPSFLSLRKGA [NCK2]	4.75 ± 0.2	4.83 ± 0.13
LNVQKTVDYTGQAKAQVRKAVQYE [STX11]	3.99 ± 0.11	4.09 ± 0.19
TKQNFFSQTPILQALQHVQASCDE [INTS3]	3.95 ± 0.12	4.16 ± 0.23
DEDDSTSRFSSSTEQSSASRLMRR [DVL3]	5.28 ± 0.25	5.36 ± 0.26
